Results reported in patent publication US20070036810A1, “Cyclic amp response element activator proteins and uses related thereto” (priority 2003, published 2007).

Assays:
[1] = tested on: Interleukin-8 promoter; assay: IL-8 promoter luciferase reporter co-transfection assay with the CREAP gene family; type: cell-based, human; settings: cotransfection, relative to empty pCMV-SPORT6 vector
Text: (§1) The entire amino acid sequence for CREAP1 was used in a BLASTP search of a public NCBI database. Initially two public domain cDNAs (XM—117201 and FLJ00364) were identified that have significant homology to the CREAP1 coding region. The nucleotide sequence of XM—117201 was used in a BLASTN search (Altschul S. F. et al., Nucleic Acids Res. 25:3389-3402 (1997)) of a proprietary cDNA library EST database and 4 clones were identified that represent XM—117201 public sequence. All 4 clones were functionally tested upon co-transfection with the CRE-Luc and IL-8p-Luc reporters initially found to be induced by CREAP using methods similar to those disclosed above. Briefly, trypsinized HeLa cells are resuspended in complete growth media at 6×10^4 cells/ml and distributed into white 96-well plates (Costar) in the volume of 100 μl per well. Cells are left overnight in a tissue culture incubator at 37° C. and 5% CO2. pGL3B-IL-8p-Luc reporter plasmid or CRE-Luc reporter (BD Biosciences) as well as tested cDNAs are resuspended in OptiMEM I low serum media (GIBCO BRL) at 25 ng/ml. The reporter plasmids and cDNAs are then distributed into 96-well clean PCR plates (ABGene) at 4 μl/well and 3 μl/well respectively. […]
The activity of firefly and Renilla luciferase is measured using the DualGlo Luciferase Assay System (Promega) following the protocol supplied by the manufacturer. Briefly, 115 μl of freshly reconstituted luciferase reagent is added to each well of the 96-well tissue culture plates with a Multidrop 384 and, after 15 minutes incubation, luminescence is read on a LUMINOSKAN Ascent Luminometer (Thermo Labsystems) with a 400 msec integration time. Subsequently, 115 μl of Stop-and-Glo reagent is added to each well of the 96-well tissue culture and, after 15 minutes incubation, luminescence is read on a LUMINOSKAN Ascent Luminometer with a 200 msec integration time. The activity of each tested cDNA is measured as a ratio of the corresponding firefly and Renilla luciferase activities. […]

[2] = tested on: minimal promoter linked to multiple copies of CRE; assay: CRE-Luc reporter co-transfection assay with the CREAP gene family; type: cell-based; settings: for CRE: level of expression of luciferase relative to empty vector: cotransfection, relative to empty pCMV-SPORT6 vector
Text: as §1, with “respectively. Mixture containing Fugene 6 reagent (Roche Applied Bioscience) at 1.5 μl per transfection and pRL-SV40 (Promega) plasmid 20 ng per transfection is added in the volume of 10 μl per well of the 96-well PCR plate containing prediluted cDNAs.” for “respectively.”
The activity of firefly and Renilla luciferase is measured using the DualGlo Luciferase Assay System (Promega) following the protocol supplied by the manufacturer. Briefly, 115 μl of freshly reconstituted luciferase reagent is added to each well of the 96-well tissue culture plates with a Multidrop 384 and, after 15 minutes incubation, luminescence is read on a LUMINOSKAN Ascent Luminometer (Thermo Labsystems) with a 400 msec integration time. Subsequently, 115 μl of Stop-and-Glo reagent is added to each well of the 96-well tissue culture and, after 15 minutes incubation, luminescence is read on a LUMINOSKAN Ascent Luminometer with a 200 msec integration time. The activity of each tested cDNA is measured as a ratio of the corresponding firefly and Renilla luciferase activities.
To investigate this, the ability of CREAP2 and CREAP3 to activate gene expression driven by the IL-8 promoter and a CRE-dependent promoter was tested in co-transfection assays as disclosed above. Briefly, the levels of expression of a luciferase reporter driven by either the IL-8 promoter or a minimal promoter linked to 4 copies of CRE were determined after cotransfection with either an empty pCMV-SPORT6 expression vector or with the same vector carrying a cDNA for CREAP1, CREAP2 or CREAP3. […]

[3] = tested on: GAL4-CREB fusion protein; assay: GAL4-CREB activation assay in HLR cell line; type: cell-based; settings: HLR cell line with integrated pFR-Luc reporter, normalized to pCMV-BD vector
Method: To determine if CREAP proteins can directly activate CREB1 protein, the expression constructs of CREAP1, CREAP2 and CREAP3 were transfected individually or with GAL4-CREB plasmid (Stratagene) into HLR cell line (Stratagene) carrying genomic DNA integrated copies of pFR-Luc reporter. Briefly, HLR cells were maintained per manufacturer's instructions. Selected plasmids and either empty vector (pCMV-BD) or GAL4-CREB plasmid were transfected at 75 ng/well using Fugene6 transfection reagent (Roche) as described above. As a positive control pFC-PKA an expression construct encoding catalytic subunit of protein kinase A (Stratagene) was also co-trasfected with GAL4-CREB. Fold of activation was compared to the reporter's activity measured in the cells transfected with empty vector.
The ability of full length CREAP1, CREAP2 and CREAP3 to induce the activity of GAL4-CREB fusion protein (Stratagene) was tested. The data presented are normalized to the value seen with pCMV-BD vector. […] Note the fold induction obtained with positive control is lower when compared to the data from Table 6 when all the plasmids including the reporter were transiently transfected.

[4] = tested on: GAL4 DNA binding sites (UAS-Luc, pFR-Luc reporter); assay: GAL4 DNA binding domain fusion transactivation assay (pFR-Luc) in HEK 293 cells; type: cell-based; settings: normalized to pCMV-BD vector
Text: To determine if CREAP proteins can act as a transcription activators, various regions of all 3 CREAP homologs (amino acids 300-650 of CREAP1, amino acids 296-694 of CREAP2 and amino acids 335-635 of CREAP3) were expressed as fusion proteins with the DNA binding domain of GAL4 and tested for the ability to activate expression of a reporter gene linked to GAL4 protein binding sequences (UAS-Luc (pFR-Luc reporter). Briefly, the indicated regions of CREAP1, CREAP2 and CREAP3 were amplified by PCR and subcloned in frame into pCMV-BD vector (Stratagene) encoding GAL4 DNA binding domain. Selected plasmids and empty vector (pCMV-SPORT6) were transfected into HEK 293 cells at 75 ng/well using Fugene6 transfection reagent (Roche) as described above. pFR-Luc reporter (Stratagene) encoding firefly luciferase gene driven by minimal promoter linked to 5 concatamerized GAL4 binding sites (UAS) was co-transfected at 100 ng/well. As a positive control, the reporter was also co-transfected with a plasmid encoding GAL4-CREB fusion protein (Stratagene) alone or in the presence of pFC-PKA an expression construct encoding catalytic subunit of protein kinase A (Stratagene) to activate the CREB kinase inducible activation domain. Fold induction was compared to the reporter's activity measured in the cells transfected with pCMV-BD an expression vector carrying GAL4 DNA binding domain only.
Expression constructs encoding full length CREAP1, CREAP2 and CREAP3 as well as a Gal4 DNA binding domain alone or fused with C-terminal portions of CREAP1, CREAP2 and CREAP3 were tested for the ability to induce expression of a luciferase gene controled by a minimal promoter linked to GAL4 DNA binding sites (pFRLuciferase). The data shown are normalized to the value seen with pCMV-BD vector co-transfected with pFR-Luc reporter.

[5] = tested on: human IL-8 promoter; assay: pGL2-IL-8p-Luc reporter inducibility in HEK 293 cells; type: cell-based; settings: expression construct co-transfected into HEK 293 cells, 48 hours post transfection
Method: A luciferase reporter controlled by a 1.5 kB IL-8 promoter containing fragment of human IL-8 promoter was tested for inducibility by known regulators of cytokine-mediated gene expression. pNF-κB-Luc (BD Biosciences) and pGL2-IL-8p-Luc reporters were co-transfected into HEK 293 cells with expression constructs encoding known activators of the NF-κB pathway, truncated MEKK (AA 360-672) (Stratagene) and a full length TRAF6 cDNA made according to conventional methods using a proprietary clone collection. Cells co-transfected with empty pCMV-Sport6 vector were either left untreated or treated with TNFα (50 ng/ml, for 16 hours). Luciferase activity was measured 48 hours post transfection. The pNF-κB-Luc reporter was used as a positive control.

B1: CREAP3: human CREAP family protein of 619 amino acids, SEQ ID NO 25; reconstructed full-length FLJ00364 cDNA (protein)
chain: MAASPGSGSANPRKFSEKIALHTQRQAEETRAFEQLMTDLTLSRVQFQKLQQLRLTQYHGGSLPNVSQLRSNASEFQPSFHQADNVRGTRHHGLVERPSRNRFHPLHRRSGDKPGRQFDGSAFGANYSSQPLDESWPRQQPPWKDEKHPGFRLTSALNRTNSDSALHTSALSTKPQDPYGGGGQSAWPAPYMGFCDGENNGHGEVASFPGPLKEENLLNVPKPLPKQLWETKEIQSLSGRPRSCDVGGGNAFPHNGQNLGLSPFLGTLNTGGSLPDLTNLHYSTPLPASLDTTDHHFGSMSVGNSVNNIPAAMTHLGIRSSSGLQSSRSNPSIQATLNKTVLSSSLNNHPQTSVPNASALHPSLRLFSLSNPSLSTTNLSGPSRRRQPPVSPLTLSPGPEAHQGFSRQLSSTSPLAPYPTSQMVSSDRSQLSFLPTEAQAQVSPPPPYPAPQELTQPLLQQPRAPEAPAQQPQAASSLPQSDFQLLPAQGSSLTNFFPDVGFDQQSMRPGPAFPQQVPLVQQGSRELQDSFHLRPSPYSNCGSLPNTILPEDSSTSLFKDLNSALAGLPEVSLNVDTPFPLEEELQIEPLSLDGLNMLSDSSMGLLDPSVEETFRADRL
modifications: human
notes: reconstructed full-length FLJ00364 cDNA
IL-8: level of expression of luciferase relative to empty vector [1]: 574.5714 | higher level of induction of gene expression compared to CREAP1 and CREAP2 ([2]; CRE and IL-8 promoter reporters): 2-4 fold | CRE: level of expression of luciferase relative to empty vector [2]: 71.4 | Fold Induction [3]: 2.458 | Fold Induction [4]: 1.58

B2: CREAP2: human CREAP family protein of 693 amino acids, SEQ ID NO 16 (protein)
chain: MATSGANGPGSATASASNPRKFSEKIALQKQRQAEETAAFEEVMMDIGSTRLQAQKLRLAYTRSSHYGGSLPNVNQIGSGLAEFQSPLHSPLDSSRSTRHHGLVERVQRDPRRMVSPLRRYTRHIDSSPYSPAYLSPPPESSWRRTMAWGNFPAEKGQLFRLPSALNRTSSDSALHTSVMNPSPQDTYPGPTPPSILPSRRGGILDGEMDPKVPAIEENLLDDKHLLKPWDAKKLSSSSSRPRSCEVPGINIFPSPDQPANVPVLPPAMNTGGSLPDLTNLHFPPPLPTPLDPEETAYPSLSGGNSTSNLTHTMTHLGISRGHGPGPGYDAPGLHSPLSHPSLQSSLSNPNLQASLSSPQPQLQGSHSHPSLPASSLACHVLPTTSLGHPSLSAPALSSSSSSSSTSSPVLGAPSYPASTPGASPHHRRVPLSPLSLLAGPADARRSQQQLPKQFSPTMSPTLSSITQGVPLDTSKLSTDQRLPPYPYSSPSLVLPTQPHTPKSLQQPGLPSQSCSVQSSGGQPPGRQSHYGTPYPPGPSGHGQQSYHRPMSDFNLGNLEQFSMESPSASLVLDPPGFSEGPGFLGGEGPMGGPQDPHTFNHQNLTHCSRHGSGPNIILTGDSSPGFSKEIAAALAGVPGFEVSAAGLELGLGLEDELRMEPLGLEGLNMLSDPCALLPDPAVEESFRSDRLQ
modifications: human
IL-8: level of expression of luciferase relative to empty vector [1]: 126.8571 | CRE: level of expression of luciferase relative to empty vector [2]: 38.6 | Fold Induction [3]: 2.435 | Fold Induction [4]: 2.47

B3: TRAF6: full length TRAF6 cDNA expression construct; TNF receptor-associated factor 6 (protein, UniProt Q9Y4K3 1-522, looked up)
chain: MSLLNCENSCGSSQSESDCCVAMASSCSAVTKDDSVGGTASTGNLSSSFMEEIQGYDVEFDPPLESKYECPICLMALREAVQTPCGHRFCKACIIKSIRDAGHKCPVDNEILLENQLFPDNFAKREILSLMVKCPNEGCLHKMELRHLEDHQAHCEFALMDCPQCQRPFQKFHINIHILKDCPRRQVSCDNCAASMAFEDKEIHDQNCPLANVICEYCNTILIREQMPNHYDLDCPTAPIPCTFSTFGCHEKMQRNHLARHLQENTQSHMRMLAQAVHSLSVIPDSGYISEVRNFQETIHQLEGRLVRQDHQIRELTAKMETQSMYVSELKRTIRTLEDKVAEIEAQQCNGIYIWKIGNFGMHLKCQEEEKPVVIHSPGFYTGKPGYKLCMRLHLQLPTAQRCANYISLFVHTMQGEYDSHLPWPFQGTIRLTILDQSEAPVRQNHEEIMDAKPELLAFQRPTIPRNPKGFGYVTFMHLEALRQRTFIKDDTLLVRCEVSTRFDMGSLRREGFQPRSTDAGV
modifications: full-length
increase of IL-8 promoter-reporter activity [5]: 4.9 times
